Common to all, as to assay: co-IP
Assay [1] addresses GFP-tagged Rab4 (UniProt P20338).
Assay [2] deals with Syntaxin13 (Stx13), endogenous in HEK cells (human (endogenous in HEK293T)) (UniProt Q86Y82).
Assay [3] addresses GFP-tagged GRIP1 (UniProt P97879).
UniProt P97879, sequence (P97879 whole entry): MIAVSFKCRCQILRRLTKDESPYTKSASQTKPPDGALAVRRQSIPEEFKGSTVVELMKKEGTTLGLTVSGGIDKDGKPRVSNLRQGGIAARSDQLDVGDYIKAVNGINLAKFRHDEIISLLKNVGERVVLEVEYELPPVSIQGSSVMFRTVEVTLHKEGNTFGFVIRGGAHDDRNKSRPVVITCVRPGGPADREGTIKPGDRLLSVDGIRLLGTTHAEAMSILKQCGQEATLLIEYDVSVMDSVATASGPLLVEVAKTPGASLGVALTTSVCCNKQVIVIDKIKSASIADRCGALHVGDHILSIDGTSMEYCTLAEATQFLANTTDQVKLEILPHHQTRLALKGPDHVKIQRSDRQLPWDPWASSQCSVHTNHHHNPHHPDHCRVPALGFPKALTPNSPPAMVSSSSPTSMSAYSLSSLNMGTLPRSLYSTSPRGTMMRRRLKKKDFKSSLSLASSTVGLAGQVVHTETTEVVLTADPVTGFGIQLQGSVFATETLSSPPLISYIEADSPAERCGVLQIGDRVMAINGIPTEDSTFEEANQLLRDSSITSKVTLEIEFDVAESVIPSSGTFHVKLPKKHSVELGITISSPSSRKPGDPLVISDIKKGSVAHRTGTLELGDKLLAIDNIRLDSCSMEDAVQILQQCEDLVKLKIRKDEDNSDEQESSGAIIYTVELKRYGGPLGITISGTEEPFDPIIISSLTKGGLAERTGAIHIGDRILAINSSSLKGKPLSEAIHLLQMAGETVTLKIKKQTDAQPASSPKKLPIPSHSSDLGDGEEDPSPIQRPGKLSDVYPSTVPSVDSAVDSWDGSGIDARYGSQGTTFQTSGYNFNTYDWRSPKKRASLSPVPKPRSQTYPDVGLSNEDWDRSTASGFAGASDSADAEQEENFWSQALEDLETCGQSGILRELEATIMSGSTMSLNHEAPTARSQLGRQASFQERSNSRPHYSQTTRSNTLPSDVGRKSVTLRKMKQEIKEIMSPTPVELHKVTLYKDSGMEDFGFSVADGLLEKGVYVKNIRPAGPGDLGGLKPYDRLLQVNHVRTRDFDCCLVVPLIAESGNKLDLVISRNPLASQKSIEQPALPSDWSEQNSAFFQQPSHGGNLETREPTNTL

UniProt P20338, sequence (P20338 whole entry): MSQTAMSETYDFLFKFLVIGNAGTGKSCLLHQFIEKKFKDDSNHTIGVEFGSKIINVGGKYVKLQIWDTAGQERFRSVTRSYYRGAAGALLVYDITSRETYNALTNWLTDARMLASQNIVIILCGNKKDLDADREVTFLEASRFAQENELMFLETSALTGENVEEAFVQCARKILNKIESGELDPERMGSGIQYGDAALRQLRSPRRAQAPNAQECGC
UniProt Q86Y82, sequence (Q86Y82 whole entry): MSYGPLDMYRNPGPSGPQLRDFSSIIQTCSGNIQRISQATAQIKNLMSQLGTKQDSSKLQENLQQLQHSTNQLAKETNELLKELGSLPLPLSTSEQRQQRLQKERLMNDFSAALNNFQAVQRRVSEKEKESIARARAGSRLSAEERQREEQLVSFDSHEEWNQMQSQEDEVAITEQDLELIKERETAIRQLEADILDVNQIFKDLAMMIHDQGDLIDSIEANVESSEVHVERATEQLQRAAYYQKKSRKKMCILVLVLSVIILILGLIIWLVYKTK

“GRASP1 S73N (intellectual disability mutant) (from UniProt Q8VD04 1-806) (natural protein)” displayed a GRASP1 co-precipitated with Rab4, % WT in assay [1] of 98.2 % WT. The substance also yielded a GRASP1 co-precipitated with Stx13, % WT in assay [2] of 553 % WT. The same substance had a GRASP1 co-precipitated with GRIP1, % WT in assay [3] of 206 % WT.
The like results for “GRASP1 GBD deletion mutant (dGBD) (from UniProt Q8VD04 1-806) (natural protein)” were, in that order, 34.8 % WT, 62.7 % WT and 42.6 % WT.
For “GRASP1 R822Q (intellectual disability mutant) (from UniProt Q8VD04 1-806) (natural protein)”, in that order: 105 % WT, 83.2 % WT and 43.7 % WT.
